# Results reported in patent US20230050148A1, “TGF-BETA INHIBITORS AND USE THEREOF” (SCHOLAR ROCK, INC., priority 2020, published 2023).
# Read-outs that look alike come from different tables or passages of the source.
# How the values were obtained:
# [1] = tested on: intratumoral immune cells in MBT2 tumors; assay: MBT2 tumor immune contexture (flow cytometry, IHC, qPCR); format: in vivo, mouse; conditions: MBT-2
# Text: To study the immune effects of anti-PD-1 or Ab6-mIgG1 treatment as single agents or in combination, MBT-2 tumors were harvested from mice 10 days after treatment initiation and then subjected to immunohistochemical and flow cytometry analyses of select immune cell markers. […] The relevance of this increase in Treg cells is unclear given the significant anti-tumor effects observed with combination treatment. […] This appears to be due to selective reduction in CD11 b+CD206+ and CD11 b+Gr1+ subpopulations, which correspond to immunosuppressive M2-like macrophages and myeloid-derived suppressor cells (MDSC), respectively. Collectively, the representation of these two populations of cells is reduced from an average of 47% of the CD45+ cell population to 14% after combination treatment (FIG. 28B).
# Each study group contained 12 mice with MBT2 tumors as described herein. […]
# Flow cytometric analysis: Tumor-associated immune cell subsets were also analyzed by tumor flow cytometry in MBT-2 tumors. […] Flow cytometry was performed on a Attune NxT (ThermoFisher) and analyzed with FlowJo (BD Bioscience).
# For immunohistochemical analysis, tumors from six animals were cut in halves and fixed. […] FIG. 30E provides the quantitation of the IHC data, shown as % of CD8-positive cells of total nuclei. […]
# [2] = first-in-human dose selection (allometric scaling, PAD, safety factors); conditions: S91, MBT-2, EMT-6 models, with anti-PD-1
# Method: In vivo pharmacology data was utilized to predict the human pharmacological active dose (PAD) and recommended the FIH dose. In addition, safety margins were determined between the predicted exposure at the recommended FIH dose and the exposure achieved at the NOAELs in toxicology studies.
# EMT6 tumors = assay: EMT-6 syngeneic breast carcinoma model; format: in vivo, BALB/c mouse; conditions: dose 10 mg/kg
# Method: EMT6 tumors were implanted subcutaneously. Treatment began when EMT6 tumors reached 30-80 mm^3. Anti-PD-1 was dosed at 10 mkg twice weekly. […] Anti-TGFβ3 neutralizing antibody was dosed at 30 mkg once weekly.
# Responders are defined as those achieving tumor size of <25% of the endpoint volume at study end.
# (§1) All antibodies were dosed intraperitoneally.
# [3] = mouse, in vivo, iv
# Method: Pharmacokinetics studies were conducted in female C57BL/6 mice, SD rats, and cynomolgus monkeys. […] A non-GLP single-dose PK study was performed in C57BL/6 mice (10-11 weeks) at Gateway Pharmacology Laboratories in Chesterfield, Mo. Additional pharmacokinetic and toxicology studies were conducted in naive young adult Sprague Dawley rats (7-10 weeks) and cynomolgus monkeys (2-4 years).
# The lower limit of quantitation (LLOQ) for the non-GLP assays were 125, 125, and 250 ng/mL for the mouse, rat, and cynomolgus monkey, respectively; and 75 ng/mL for the optimized and validated GLP assays (rat and monkey). The absorbance-versus concentration relationship was regressed using a 4-parameter logistic curve fit (with a weighting factor of 1/Y2 for the validated assays to support the toxicokinetic studies), and concentrations were calculated using GraphPad Prism or Watson LIMS (Thermo, Pennsylvania, USA) data reduction software.
# Female mice were group housed (3-5 mice/cage) in polycarbonate cages containing appropriate bedding and water valves in a controlled environment (17.8-26.7° C.; 30-70% relative humidity; 12-hour light and dark cycles) and were offered standard rodent chow (PicoLab Rodent Diet 20) and tap water ad libitum. Mice were randomly assigned to treatment groups for all studies.
# PK parameters were calculated in Phoenix® WinNonlin® (Certara USA Inc.) from the concentration-time data using a noncompartmental analysis method with intravenous (IV) bolus input. Nominal doses and sampling times were used. […] Area under the concentration time curve (AUC) was computed using the linear trapezoidal approximation method. Terminal half-life (t1/2) was estimated by log-linear regression of the terminal phase of the mean concentration versus time profiles. At least 3 points clearly visible in the terminal phase, an r^2 value of at least 0.8, and time interval of at least 3 half-lives (in the GLP toxicity studies only) were required to characterize half-life.
# Cloudman S91 tumors = assay: Cloudman S91 melanoma model; format: in vivo, DBA/2 mouse; conditions: dose range 3, 10 and 30 mg/kg
# Method: Clone M3 [Cloudman S91 melanoma] (ATCC® CCL-53.1™) cells were obtained from the American Type Culture Collection (ATCC), and were maintained at CR Discovery Services as exponentially growing suspension cultures in Kaighn's modified Ham's F12 Medium supplemented with 2.5% fetal bovine serum, 15% horse serum, 2 mM glutamine, 100 units/mL penicillin G sodium, 100 μg/mL streptomycin sulfate and 25 μg/mL gentamicin. The tumor cells were grown in tissue culture flasks in a humidified incubator at 37° C., in an atmosphere of 5% CO2 and 95% air.
# When tumors reached a volume of 125-175 mm^3 mice were randomized into groups of 12 with identical mean tumor volumes and dosing began.
# Group 1 received anti-PD-1 antibody only. […] An untreated control was used, data not shown.
# Percent tumor growth delay (% TGD) is defined as the increase in the median time to endpoint in a treatment group compared to the untreated control, expressed as a percentage of the median time to endpoint (TTE) of the control: • T=median TTE for treatment • C=median TTE for control
# Results are summarized below (see FIGS. 9, 11 & 12).
# as §1
# MBT2 tumors = assay: MBT2 syngeneic bladder cancer model, efficacy; format: in vivo, C3H/HeN mouse
# Method: Group 1 received anti-PD-1 antibody only. […] An untreated control was used, not shown.
# as §1
# proTGFβ1 / latent TGFβ1 = target: T1, proTGFβ1 / latent TGFβ1 (Homo sapiens, UniProt P01137, C33S); assay: HDX-MS epitope mapping; conditions: Fab binding
# T1 construct: The small latent TGFβ complexes were expressed with an N-terminal His-tag; His-tag (N); made in house; host or cells: Expi293F cells
# T1 sequence (P01137 with tags, fused parts or gaps C33S): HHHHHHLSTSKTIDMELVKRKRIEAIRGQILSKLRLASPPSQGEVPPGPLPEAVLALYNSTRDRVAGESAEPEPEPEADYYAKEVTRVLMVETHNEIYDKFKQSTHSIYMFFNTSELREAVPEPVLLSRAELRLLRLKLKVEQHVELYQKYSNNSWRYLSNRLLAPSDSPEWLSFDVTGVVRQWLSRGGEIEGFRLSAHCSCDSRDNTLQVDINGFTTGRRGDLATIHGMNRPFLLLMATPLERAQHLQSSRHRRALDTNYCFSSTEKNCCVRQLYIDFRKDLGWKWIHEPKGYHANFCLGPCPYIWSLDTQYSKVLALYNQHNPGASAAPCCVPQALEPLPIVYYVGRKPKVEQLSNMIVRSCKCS
# Text: To gain initial insights into the inhibitory mechanism of action for the isoform-selective inhibitors of TGFβ1 activation, we performed Hydrogen-Deuterium Exchange Mass Spectrometry (H/DX-MS) analysis to identify possible sites of latent TGFβ1 interaction with the antibody. Hydrogen/Deuterium exchange mass spectrometry (HDX-MS) is a widely used technique for exploring protein conformation in solution. HDX-MS methodology is described in Wei et al., Drug Discov Today. 2014 January; 19(1): 95-102, incorporated by reference in its entirety herein. Briefly, HDX-MS relies on the exchange of the protein backbone amide hydrogens with deuterium in solution. […]
# Accurate mass and collision-induced dissociation in data-independent acquisition mode (MSE) and ProteinLynx Global Server (PLGS) 3.0 software (Waters Corp., Milford, Mass.) were used to determine the peptic peptides in the undeuterated protein samples analyzed on the same UPLC-ESI-QToF system used for H/DX-MS experiments. […] The relative deuterium incorporation of each peptide was determined by subtracting the weight-averaged centroid mass of the isotopic distribution of undeuterated control sample from that of the weight-averaged centroid mass of the isotopic distribution of deuterium-labeled samples at each labeling time point. […]
# human LRRC33-ProTGFb1 = target: T2, human LRRC33-ProTGFb1 (Homo sapiens, UniProt P01137); assay: SPR (Biacore 8K) Fab binding kinetics; conditions: Fab 0.62-10 nM, 1:1 binding model
# T2 construct: made in house
# T2 sequence (P01137 30-390): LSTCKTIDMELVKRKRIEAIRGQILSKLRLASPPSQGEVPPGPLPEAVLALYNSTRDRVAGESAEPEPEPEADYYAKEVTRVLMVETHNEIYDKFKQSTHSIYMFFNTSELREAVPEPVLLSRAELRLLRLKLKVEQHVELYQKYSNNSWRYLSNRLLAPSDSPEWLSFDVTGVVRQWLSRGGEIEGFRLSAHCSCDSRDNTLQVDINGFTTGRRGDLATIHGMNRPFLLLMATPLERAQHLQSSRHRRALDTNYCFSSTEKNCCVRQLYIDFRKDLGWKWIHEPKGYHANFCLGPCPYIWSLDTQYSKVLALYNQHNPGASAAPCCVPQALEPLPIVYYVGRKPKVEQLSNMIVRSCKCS
# T2 sequence (Q86YC3 19-650 partner limits assumed): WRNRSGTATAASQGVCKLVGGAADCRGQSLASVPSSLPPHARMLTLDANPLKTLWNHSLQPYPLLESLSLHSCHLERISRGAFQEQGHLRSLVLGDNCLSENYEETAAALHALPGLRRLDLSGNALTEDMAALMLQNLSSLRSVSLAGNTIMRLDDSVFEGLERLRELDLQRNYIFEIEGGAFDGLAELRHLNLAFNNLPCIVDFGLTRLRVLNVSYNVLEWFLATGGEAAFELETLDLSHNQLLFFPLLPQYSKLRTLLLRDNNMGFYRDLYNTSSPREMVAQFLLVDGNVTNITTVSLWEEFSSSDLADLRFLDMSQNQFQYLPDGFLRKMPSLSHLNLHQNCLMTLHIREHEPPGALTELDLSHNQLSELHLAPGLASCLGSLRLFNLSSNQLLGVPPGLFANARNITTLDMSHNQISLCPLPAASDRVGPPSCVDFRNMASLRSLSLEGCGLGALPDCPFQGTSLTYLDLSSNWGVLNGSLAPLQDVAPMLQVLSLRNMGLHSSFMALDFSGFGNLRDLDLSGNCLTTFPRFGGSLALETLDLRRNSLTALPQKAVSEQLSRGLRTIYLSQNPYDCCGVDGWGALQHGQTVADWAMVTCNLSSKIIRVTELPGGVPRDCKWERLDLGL
# Method: (§2) Briefly, the binding kinetics were evaluated by surface plasmon resonance using Biacore 8K (GE Healthcare). A Biotin CAP sensor chip was used to capture the biotinylated antigens. Fabs at various concentrations (0 nM, 0.62 nM, 1.25 nM, 2.5 nM, 5 nM and 10 nM) were injected over the captured antigens. Multi-cycle kinetics was employed where each analyte concentration was injected in a separate cycle and the sensor chip surface was regenerated after each cycle. All the assays were carried out in freshly prepared 1×HBS-EP+ buffer (10 mM HEPES, 150 mM NaCl, 3 mM EDTA, 0.05% Tween20, pH 7.4). Data for all the analyte concentrations for each interaction were fit globally to a 1:1 binding model to obtain the kinetic parameters. The Sensorgram for 0 nM analyte concentration was used as reference.
# (§3) Binding kinetics was evaluated by surface plasmon resonance using a Biacore 8K (GE) instrument. Biotinylated antigens were captured on a Biotin CAP chip and the Fab fragments of the antibodies were used as analytes. Sensorgrams for Fab binding at variable concentrations (0.6-10 nM) were globally fit to obtain the kinetic parameters. Binding kinetics for the Fabs were evaluated against each of the four human antigens, LTBP1-ProTGFb1, LTBP3-ProTGFb1, GARP-ProTGFb1, and LRRC33-ProTGFb1.
# human LTBP1-ProTGFb1 = target: T3, human LTBP1-ProTGFb1 (Homo sapiens, UniProt P01137); assay: SPR (Biacore 8K) Fab binding kinetics; conditions: Fab 0.62-10 nM, 1:1 binding model
# T3 construct: made in house; host or cells: Expi293F cells, co-transfected with pTT5 plasmids
# T3 sequence (P01137 30-390): as the sequence (P01137 30-390) above
# T3 sequence (Q14766 873-1507 partner): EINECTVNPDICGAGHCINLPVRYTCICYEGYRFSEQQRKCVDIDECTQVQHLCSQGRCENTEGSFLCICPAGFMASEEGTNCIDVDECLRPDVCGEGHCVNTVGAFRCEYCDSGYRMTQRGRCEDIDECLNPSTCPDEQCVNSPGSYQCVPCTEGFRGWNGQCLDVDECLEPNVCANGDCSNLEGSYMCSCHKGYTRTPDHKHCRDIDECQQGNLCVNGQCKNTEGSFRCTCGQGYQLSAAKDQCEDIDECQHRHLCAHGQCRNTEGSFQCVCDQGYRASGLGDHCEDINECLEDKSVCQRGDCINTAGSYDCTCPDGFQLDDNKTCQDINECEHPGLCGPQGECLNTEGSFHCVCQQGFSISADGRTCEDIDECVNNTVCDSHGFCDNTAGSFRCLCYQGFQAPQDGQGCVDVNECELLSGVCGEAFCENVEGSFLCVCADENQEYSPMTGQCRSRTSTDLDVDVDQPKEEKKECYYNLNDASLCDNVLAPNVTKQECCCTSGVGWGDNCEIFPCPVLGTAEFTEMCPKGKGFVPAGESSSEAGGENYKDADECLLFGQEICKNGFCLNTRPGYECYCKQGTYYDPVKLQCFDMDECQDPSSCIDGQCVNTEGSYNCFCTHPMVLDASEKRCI
# Method: as §2, §3
# human GARP-ProTGFb1 = target: T4, human GARP-ProTGFb1 (Homo sapiens, UniProt P01137); assay: SPR (Biacore 8K) Fab binding kinetics; conditions: Fab 0.62-10 nM, 1:1 binding model
# T4 construct: made in house
# T4 sequence (P01137 30-390): as the sequence (P01137 30-390) above
# T4 sequence (Q14392 20-627 partner limits assumed): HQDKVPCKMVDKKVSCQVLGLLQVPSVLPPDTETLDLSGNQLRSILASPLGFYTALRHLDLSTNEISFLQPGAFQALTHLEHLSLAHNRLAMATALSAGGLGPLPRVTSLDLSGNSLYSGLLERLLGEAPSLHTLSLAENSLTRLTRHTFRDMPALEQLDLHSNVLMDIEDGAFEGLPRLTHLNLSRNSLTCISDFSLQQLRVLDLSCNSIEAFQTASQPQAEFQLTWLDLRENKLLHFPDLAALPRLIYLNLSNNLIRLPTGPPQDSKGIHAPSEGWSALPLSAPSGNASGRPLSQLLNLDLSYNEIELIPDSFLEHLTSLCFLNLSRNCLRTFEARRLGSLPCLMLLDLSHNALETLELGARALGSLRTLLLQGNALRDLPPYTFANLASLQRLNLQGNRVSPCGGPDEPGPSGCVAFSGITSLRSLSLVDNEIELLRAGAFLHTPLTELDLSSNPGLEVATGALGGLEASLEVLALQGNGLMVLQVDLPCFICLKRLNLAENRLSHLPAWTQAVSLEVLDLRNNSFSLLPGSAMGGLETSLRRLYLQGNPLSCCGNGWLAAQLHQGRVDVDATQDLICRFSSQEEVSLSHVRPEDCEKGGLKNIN
# Method: as §2, §3
# human LTBP3-ProTGFb1 = target: T5, human LTBP3-ProTGFb1 (Homo sapiens, UniProt P01137); assay: SPR (Biacore 8K) Fab binding kinetics; conditions: Fab 0.62-10 nM, 1:1 binding model
# T5 construct: made in house; host or cells: Expi293F cells, co-transfected with pTT5 plasmids
# T5 sequence (P01137 30-390): as the sequence (P01137 30-390) above
# T5 sequence (Q9NS15 866-1039 partner limits assumed): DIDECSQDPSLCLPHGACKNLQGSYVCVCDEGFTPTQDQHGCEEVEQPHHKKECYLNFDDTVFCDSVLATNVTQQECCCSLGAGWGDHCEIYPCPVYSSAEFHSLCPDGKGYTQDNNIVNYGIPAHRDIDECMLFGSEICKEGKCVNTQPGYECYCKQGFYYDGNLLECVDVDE
# Method: as §2, §3
molecule,measurement,setting,value
Ab6-mIgG1: chimeric antibody with the human V domains of Ab6 fused to mouse IgG1/kappa constant domains (protein) heavy chain: EVQLVESGGGLVQPGGSLRLSCTASGFTFSSFSMDWVRQAPGKGLEWVSYISPSADTIYYADSVKGRFTISRDNAKNTLYLQMNSLRAEDTAVYYCARGVLDYGDMLMPWGQGTLVTVSS light chain: DIQMTQSPSSLSASVGDRVTITCQASQDITNYLNWYQQKPGKAPKLLIYDASNLETGVPSRFSGSGSGTDFTFTISSLQPEDIATYYCQQADNHPPWTFGGGTKVEIK,pSmad3 staining in tumor vascular endothelium,[1],much diminished
same,pharmacologically active dose (range),[2],3-10 mg/kg
same,PAD,EMT6 tumors,10 mg/kg
same,"Cmax (mean, range over dose groups)",[3],7400 to 664000 ng/mL
same,AUC0-inf,[3]; 3 mg/kg,4890 µg·h/mL
same,AUClast,[3]; 3 mg/kg,4710 µg·h/mL
same,AUC0-inf,[3]; 10 mg/kg,17800 µg·h/mL
same,AUClast,[3]; 10 mg/kg,17400 µg·h/mL
same,AUC0-inf,[3]; 30 mg/kg,64200 µg·h/mL
same,AUClast,[3]; 30 mg/kg,64100 µg·h/mL
same,PAD,Cloudman S91 tumors,3 mg/kg
same,tumor-free survivors,"MBT2 tumors; MBT2, 3 mg/kg per week + anti-PD-1",21%
same,tumor-free survivors,"MBT2 tumors; MBT2, 10 mg/kg per week + anti-PD-1",36%
same,PAD,"MBT2 tumors; MBT-2, dose range 3 and 10 mg/kg",10 mg/kg
"Ab6 Fab: Fab fragment of Ab6 used as analyte in SPR and in HDX-MS (antibody, V domains shown) VH: EVQLVESGGGLVQPGGSLRLSCTASGFTFSSFSMDWVRQAPGKGLEWVSYISPSADTIYYADSVKGRFTISRDNAKNTLYLQMNSLRAEDTAVYYCARGVLDYGDMLMPWGQGTLVTVSS VL: DIQMTQSPSSLSASVGDRVTITCQASQDITNYLNWYQQKPGKAPKLLIYDASNLETGVPSRFSGSGSGTDFTFTISSLQPEDIATYYCQQADNHPPWTFGGGTKVEIK",regions on proTGFβ1 strongly protected from deuterium exchange,proTGFβ1 / latent TGFβ1,three binding regions
same,koff,human LRRC33-ProTGFb1,0.000123 s⁻¹
same,kon,human LRRC33-ProTGFb1,845000 M⁻¹ s⁻¹
same,koff,human LTBP1-ProTGFb1,0.000255 s⁻¹
same,kon,human LTBP1-ProTGFb1,2.05e+06 M⁻¹ s⁻¹
same,koff,human GARP-ProTGFb1,0.000218 s⁻¹
same,kon,human GARP-ProTGFb1,2.1e+06 M⁻¹ s⁻¹
same,koff,human LTBP3-ProTGFb1,0.000831 s⁻¹
same,kon,human LTBP3-ProTGFb1,1.7e+06 M⁻¹ s⁻¹
